Measurements taken from patent US20250277057A1 (OKLAHOMA MEDICAL RESEARCH FOUNDATION, published 2025).
Positions count from the first letter of the chain named.

B1: HAPC-14-1 (antibody, V domains shown)
VH: EVQLVESGGGLVQPGGSLRLSCAASGFTFSFYYLNWVRQAPGKGLEWVGDIRLKSNNYEKHYAESVKGRFTISRDDSKSITYLQMNSLRAEDTAVYYCAREGDYFDYWGQGTTVTVSS
VL: DIQLTQSPSSLSASVGDRVTITCRASESVDSFGATFMHWYQQKPGKAPKLLIYLASWLGSGVPSRFSGSGSGTDFTLTISSLQPEDFATYYCQQNNEDPYTFGQGTKLEIK
notes: Whole IgG, backbone hIgG1; also called HPAC14-1
B2: HAPC-14-2 (antibody, V domains shown)
VH: B1 VH with S55K
VL: B1 VL with G59E, Q93V
notes: Whole IgG, backbone hIgG1; also called HPAC 14-2
B3: HAPC-14-4 (antibody, V domains shown)
VH: B1 VH
VL: B1 VL with W57R, Q93V
notes: Whole IgG, backbone hIgG1; also called HPAC 14-4
B4: HAPC-14-5 (antibody, V domains shown)
VH: B1 VH with S55K
VL: B1 VL with Q93V
notes: Whole IgG, backbone hIgG1; also called HPAC 14-5
B5: HAPC-14-7 (antibody, V domains shown)
VH: B1 VH
VL: B1 VL with W57R, G59E
notes: Whole IgG, backbone hIgG1; also called HPAC 14-7
B6: HAPC-14-9 (antibody, V domains shown)
VH: B1 VH with S55K, Y104T
VL: B1 VL with W57R
notes: Whole IgG, backbone hIgG1; also called HPAC 14-9
B7: HAPC-14-10 (antibody, V domains shown)
VH: B1 VH with F31N, S55K, Y104T
VL: B1 VL with W57R, Q93V
notes: Whole IgG, backbone hIgG1; also called HPAC 14-10
B8: Humanized antibody 14 (HAPC-14) (antibody, V domains shown)
VH: B1 VH with F31N
VL: B1 VL with W57N, G59E
notes: also called Humab001-14; NO; 14 antibody
B9: HAPC-14-8 (antibody, V domains shown)
VH: B1 VH with S55K, Y104T
VL: B1 VL with W57R, Q93V
notes: Whole IgG, backbone hIgG1; also called HPAC 14-8
B10: HAPC1573 (antibody, from another filing, V domains shown)
VH: EVKLEESGGGLVQPGGSMKLSCVASGFTFSNYYLNWVRQSPEKGLEWVADIRLKSNNYEKHYAESVKGRFTISRDDSKSSVYLQMNNLRAEDTGIYYCIREGDYFDYWGQGTTLTVSS
VL: NIVLTQSPASLAVSLGQRATISCRASESVDSFGATFMHWYQQKPGQPPKLLIYLASNLESGVPARFSGSGSRTDFTLTIDPVEADDAATYYCQQNNEDPYTFGGGTKLEIKR

What follows are binders tested against T1, human protein C (human, UniProt P04070 43-461) (assay: ELISA on plate-coated HPC, OD450).
T1 construct: Zymogen form, coated on ELISA plates; also called hPC; PC
Procedure: (§1) The binding abilities of the anti-aPC monoclonal antibodies to haPC/hPC were assayed by Elisa. […] 1. ELISA plates were coated with haPC/hPC (1 ug/mL in PBS), 100 μL/well, at 4° C. overnight. […] 2. The plates were washed 3 times with PBST (0.1% Tween 20), 200 μL/well. […] 3. The plates were blocked with 2% BSA (PBS solution), 200 μL/well, at room temperature for 1 hour. […] 4. The plates were washed 3 times with PBST (0.1% Tween 20), 200 μL/well. […] 5. The plates were incubated with anti-aPC monoclonal antibody as primary antibody (diluted from 10 μg/mL in 2% BSA), 100 μL/well, at room temperature for 1 hour. […] 6. The plates were washed 3 times with PBST (0.1% Tween 20), 200 μL/well. [0200] 7. The plates were incubated with anti-hIgG-Fc antibody-HRP (diluted 5000-fold in 2% BSA buffer) at room temperature for 1 hour. [0201] 8. The plates were washed 6 times with PBST (0.1% Tween 20), 200 μL/well. [0202] 9. The plates were incubated with a TMB substrate (prepared from solutions A and B at 1:1 (v/v)), 100 μL/well, away from light for 10 minutes. […] 10. The reaction was quenched with HCl (1 M), 100 μL/well, and OD450 was read.

Binder | binding result
B1 | no binding (tested: 10^2 nM)
B2 | no binding (tested: 10^2 nM)
B3 | no binding (tested: 10^2 nM)
B4 | no binding (tested: 10^2 nM)
B5 | no binding (tested: 10^2 nM)
B6 | no binding (tested: 10^2 nM)
B7 | no binding (tested: 10^2 nM)
B8 | no binding (tested: 10^2 nM)

What follows are binders tested against T2, human activated protein C (human, UniProt P04070 43-197; P04070 212-461) (assay: ELISA, plate coated with haPC 1 ug/mL, anti-hIgG-Fc-HRP).
T2 construct: In the plasma assays aPC is generated in human plasma with Protac; also called aPC; haPC
Procedure: as §1

Binder | EC50 [nM] | Span
B1 | 0.114 | 2.11
B2 | 0.111 | 1.77
B3 | 0.0605 | 1.52
B4 | 0.0924 | 1.63
B5 | 0.13 | 1.58
B9 | 0.138 | 1.05
B6 | 0.0761 | 1.07
B7 | 0.28 | 0.745
B8 | 0.22 | 0.291

The binders below were run against T2, human activated protein C (assay: Octet BLI, antibody on Protein A sensor, huAPC 3.13-50 nM, 1:1 model, 25 C, pH 7.4).
Procedure: Assay method: Octet analysis was carried out at 25° C. using a Protein A Octet biosensor in 1× Kinetics buffer. During the kinetics assay, the baseline step assay was run in 1× Kinetics buffer for 120 seconds, and then run for 240 seconds after the antibody was loaded to the biosensor. Next, the baseline 2 step assay was run in 1× Kinetics buffer for 120 seconds. […] The 1× Kinetics buffer was used as a blank control to show the natural dissociation of the antibody in the buffer. 10 mM glycine at pH 1.5 was used for the regeneration step. Octet data analysis software was used to calculate binding kinetics, and a 1:1 binding model was used for curve fitting.
The affinities of the mutant antibodies were assayed at pH 7.4.

Binder | Kd [nM] | koff [s⁻¹] | kon [M⁻¹ s⁻¹]
B1 | 3.83 | 0.00117 | 306000
B2 | 3.78 | 0.00116 | 307000
B3 | 4.06 | 0.00126 | 310000
B4 | 2.83 | 0.000911 | 322000
B5 | 7.72 | 0.00197 | 256000
B9 | 10.5 | 0.00262 | 250000
B6 | 9.69 | 0.00238 | 245000
B7 | 19 | 0.00428 | 225000
B8 | 254 | 0.0162 | 64000

The binders below were run against T2, human activated protein C (assay: ELISA on plate-coated APC (1 ug/ml), OD 450; EC50 from the table drawn beside the curves; no unit in the table, axis Ab Conc.(nM)).

Binder | EC50 [nM]
B8 | 0.249

What follows are binders tested against T2, human activated protein C (assay: cell-based or functional assay).

Binder | Mean clotting time (s), FIX-deficient plasma, APC-antibody concentration 0.5 ug/ml [s] | Mean clotting time (s), FIX-deficient plasma, APC-antibody concentration 1 ug/ml [s] | Mean clotting time (s), FIX-deficient plasma, APC-antibody concentration 5 ug/ml [s] | Mean clotting time (s), FVIII-deficient plasma, APC-antibody concentration 0.5 ug/ml [s] | Mean clotting time (s), FVIII-deficient plasma, APC-antibody concentration 1 ug/ml [s] | Mean clotting time (s), FVIII-deficient plasma, APC-antibody concentration 5 ug/ml [s] | Mean clotting time (s), FIX-deficient plasma, APC-antibody concentration 0.05 ug/ml [s] | Mean clotting time (s), FIX-deficient plasma, APC-antibody concentration 0.1 ug/ml [s] | Mean clotting time (s), FVIII-deficient plasma, APC-antibody concentration 0.05 ug/ml [s] | Mean clotting time (s), FVIII-deficient plasma, APC-antibody concentration 0.1 ug/ml [s]
B1 | 219 | 195 | 171 | 327 | 222 | 166 | – | – | – | –
B2 | 233 | 211 | 143 | 358 | 196 | 159 | – | – | – | –
B3 | 220 | 194 | 176 | 221 | 184 | 158 | – | – | – | –
B4 | 197 | 188 | 166 | 224 | 200 | 171 | – | – | – | –
B5 | 241 | 145 | 146 | 297 | 198 | 176 | – | – | – | –
B9 | 276 | – | – | 190 | – | – | 732 | 392 | 316 | 252
B6 | 170 | – | – | 182 | – | – | 670 | 611 | 262 | 217
B7 | 331 | 158 | – | 254 | – | – | 733 | 596 | 415 | 309
B8 | 457 | 415 | 310 | 574 | 457 | 324 | – | – | – | –

What follows are binders tested against T1, human protein C (assay: ELISA, plate coated with hPC 1 ug/mL, anti-hIgG-Fc-HRP).
Procedure: as §1

Binder | Span
B1 | 0.023
B2 | 0.0104
B3 | 0.157
B4 | ~0.0475
B5 | ~0.00661
B9 | -0.00465
B6 | 0.012
B7 | ~0.00145
B8 | ~0.0387

These binders were tested against human activated protein C (human) (UniProt P04070) (assay: cell-based or functional assay).

Binder | Mean clotting time (s), FIX-deficient plasma, APC-antibody concentration 0.5 ug/ml [s] | Mean clotting time (s), FIX-deficient plasma, APC-antibody concentration 1 ug/ml [s] | Mean clotting time (s), FIX-deficient plasma, APC-antibody concentration 5 ug/ml [s] | Mean clotting time (s), FVIII-deficient plasma, APC-antibody concentration 0.5 ug/ml [s] | Mean clotting time (s), FVIII-deficient plasma, APC-antibody concentration 1 ug/ml [s] | Mean clotting time (s), FVIII-deficient plasma, APC-antibody concentration 5 ug/ml [s] | antibody concentration needed to inhibit the anticoagulant activity of aPC, Protac-induced APTT in factor-deficient human plasma [µg/mL]
B10 | 584 | 567 | 404 | 600 | 629 | 389 | > 100
